Reference: patent publication US20200262918A1 (Stanford University, published 2020)

B1: Humanized KWAR23 anti-SIRPα antibody (antibody, V domains shown)
VH: EVQLVQSGAEVKKPGATVKISCKVSGFNIKDYYIHWVQQAPGKGLEWIGRIDPEDGETKYAPKFQDRATITADTSTDTAYMELSSLRSEDTAVYYCARWGAYWGQGTLVTVSS
VL: QIVLTQSPPTLSLSPGERVTLTCSASSSVSSSYLYWYQQKPGQAPKLWIYSTSNLASGVPARFSGSGSGTSYTLTISSLQPEDFAVYFCHQWSSYPRTFGAGTKLEIK
notes: The phagocytosis assays used HuKwar-G1, a human IgG1 with N297A; also called HuKwar-G1; HuKWar-G1
B2: Mouse KWAR23 anti-SIRPα antibody (antibody, V domains shown)
VH: EVQLQQSGAELVKPGASVKLSCTASGFNIKDYYIHWVQQRTEQGLEWIGRIDPEDGETKYAPKFQDKATITADTSSNTAYLHLSSLTSEDTAVYYCARWGAYWGQGTLVTVSS
VL: QIVLTQSPAIMSASPGEKVTLTCSASSSVSSSYLYWYQQKPGSSPKLWIYSTSNLASGVPARFSGSGSGTSYSLTISSMEAEDAASYFCHQWSSYPRTFGAGTKLELK
notes: also called mouse antibody; mKWAR

Molecular target: human SIRPα (human, UniProt P78324 31-373)
Sequence (P78324 31-504): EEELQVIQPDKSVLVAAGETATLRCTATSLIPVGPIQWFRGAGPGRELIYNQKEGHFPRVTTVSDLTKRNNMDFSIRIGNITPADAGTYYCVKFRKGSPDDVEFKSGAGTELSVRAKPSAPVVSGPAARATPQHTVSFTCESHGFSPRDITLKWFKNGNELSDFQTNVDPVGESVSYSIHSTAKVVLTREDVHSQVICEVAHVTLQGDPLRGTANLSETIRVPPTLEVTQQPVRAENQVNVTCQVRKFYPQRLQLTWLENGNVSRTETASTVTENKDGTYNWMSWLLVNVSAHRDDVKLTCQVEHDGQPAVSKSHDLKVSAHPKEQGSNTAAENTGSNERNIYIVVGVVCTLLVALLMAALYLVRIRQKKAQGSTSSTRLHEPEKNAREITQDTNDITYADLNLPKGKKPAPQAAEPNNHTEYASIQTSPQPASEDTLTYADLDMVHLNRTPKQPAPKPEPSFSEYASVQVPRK
Test: Biacore (SPR), format not stated

Binder | Kd
B1 | 1.54 nM
B2 | 1.18 nM
